# Molecular target: extracellular fragment of human macrophage galactose receptor (MGL) isoform 3 (human)
# Experiment: cross-linking
substance,measurement,value
extracellular fragment of human macrophage galactose receptor (MGL) isoform 3 (domain or fragment),stoichiometry N,3

# Source: publication PMC3671775
